Assay results from patent US20060257938A1, “Method of screening for drugs that block ligand binding to a lipid binding protein” (priority 2005, published 2006).

B1: 49N1, 72A (protein, listed as Rattus norvegicus)
chain: AFDGTWKVDRNENYEKFMEKMGINVVKRKLGAHDNLKLTITQEGNKFTNKESSNFRNIDVVFELGVDFAYSAADGTELTGTWTMEGNKLVGKFKRVDNGKELIAVREISGNELIQTYTYEGVEAKRIFKKE
modifications: PEPTIDE (1)...(131) wild-type rat intestinal fatty acid binding protein
B2: 51A1, 72A (protein, listed as Rattus norvegicus)
chain: AFDGTWKVDRNENYEKFMEKMGINVVKRKLGAHDNLKLTITQEGNKFTVKASSNFRNIDVVFELGVDFAYSAADGTELTGTWTMEGNKLVGKFKRVDNGKELIAVREISGNELIQTYTYEGVEAKRIFKKE
modifications: PEPTIDE (1)...(131) wild-type rat intestinal fatty acid binding protein
B3: 49S1, 72A (protein, listed as Rattus norvegicus)
chain: AFDGTWKVDRNENYEKFMEKMGINVVKRKLGAHDNLKLTITQEGNKFTSKESSNFRNIDVVFELGVDFAYSAADGTELTGTWTMEGNKLVGKFKRVDNGKELIAVREISGNELIQTYTYEGVEAKRIFKKE
modifications: PEPTIDE (1)...(131) wild-type rat intestinal fatty acid binding protein
B4: 51C3, 72A (protein, listed as Rattus norvegicus)
chain: AFDGTWKVDRNENYEKFMEKMGINVVKRKLGAHDNLKLTITQEGNKFTVKCSSNFRNIDVVFELGVDFAYSAADGTELTGTWTMEGNKLVGKFKRVDNGKELIAVREISGNELIQTYTYEGVEAKRIFKKE
modifications: PEPTIDE (1)...(131) wild-type rat intestinal fatty acid binding protein
B5: 51F1, 72A (protein, listed as Rattus norvegicus)
chain: AFDGTWKVDRNENYEKFMEKMGINVVKRKLGAHDNLKLTITQEGNKFTVKFSSNFRNIDVVFELGVDFAYSAADGTELTGTWTMEGNKLVGKFKRVDNGKELIAVREISGNELIQTYTYEGVEAKRIFKKE
modifications: PEPTIDE (1)...(131) wild-type rat intestinal fatty acid binding protein
B6: 49T1, 72A (protein, listed as Rattus norvegicus)
chain: AFDGTWKVDRNENYEKFMEKMGINVVKRKLGAHDNLKLTITQEGNKFTTKESSNFRNIDVVFELGVDFAYSAADGTELTGTWTMEGNKLVGKFKRVDNGKELIAVREISGNELIQTYTYEGVEAKRIFKKE
modifications: PEPTIDE (1)...(131) wild-type rat intestinal fatty acid binding protein
B7: 49Y1, 72A (protein, listed as Rattus norvegicus)
chain: AFDGTWKVDRNENYEKFMEKMGINVVKRKLGAHDNLKLTITQEGNKFTYKESSNFRNIDVVFELGVDFAYSAADGTELTGTWTMEGNKLVGKFKRVDNGKELIAVREISGNELIQTYTYEGVEAKRIFKKE
modifications: PEPTIDE (1)...(131) wild-type rat intestinal fatty acid binding protein
B8: 49Q1, 72A (protein, listed as Rattus norvegicus)
chain: AFDGTWKVDRNENYEKFMEKMGINVVKRKLGAHDNLKLTITQEGNKFTQKESSNFRNIDVVFELGVDFAYSAADGTELTGTWTMEGNKLVGKFKRVDNGKELIAVREISGNELIQTYTYEGVEAKRIFKKE
modifications: PEPTIDE (1)...(131) wild-type rat intestinal fatty acid binding protein
B9: 51D1, 72A (protein, listed as Rattus norvegicus)
chain: AFDGTWKVDRNENYEKFMEKMGINVVKRKLGAHDNLKLTITQEGNKFTVKDSSNFRNIDVVFELGVDFAYSAADGTELTGTWTMEGNKLVGKFKRVDNGKELIAVREISGNELIQTYTYEGVEAKRIFKKE
modifications: PEPTIDE (1)...(131) wild-type rat intestinal fatty acid binding protein
B10: 102V, 72A (protein, listed as Rattus norvegicus)
chain: AFDGTWKVDRNENYEKFMEKMGINVVKRKLGAHDNLKLTITQEGNKFTVKESSNFRNIDVVFELGVDFAYSAADGTELTGTWTMEGNKLVGKFKRVDNGKEVIAVREISGNELIQTYTYEGVEAKRIFKKE
modifications: PEPTIDE (1)...(131) wild-type rat intestinal fatty acid binding protein
B11: 51I1, 72A (protein, listed as Rattus norvegicus)
chain: AFDGTWKVDRNENYEKFMEKMGINVVKRKLGAHDNLKLTITQEGNKFTVKISSNFRNIDVVFELGVDFAYSAADGTELTGTWTMEGNKLVGKFKRVDNGKELIAVREISGNELIQTYTYEGVEAKRIFKKE
modifications: PEPTIDE (1)...(131) wild-type rat intestinal fatty acid binding protein
B12: 49Q, 72A (protein, listed as Rattus norvegicus)
chain: AFDGTWKVDRNENYEKFMEKMGINVVKRKLGAHDNLKLTITQEGNKFTQKESSNFRNIDVVFELGVDFAYSAADGTELTGTWTMEGNKLVGKFKRVDNGKELIAVREISGNELIQTYTYEGVEAKRIFKKE
modifications: PEPTIDE (1)...(131) wild-type rat intestinal fatty acid binding protein
B13: 49R1, 72A (protein, listed as Rattus norvegicus)
chain: AFDGTWKVDRNENYEKFMEKMGINVVKRKLGAHDNLKLTITQEGNKFTRKESSNFRNIDVVFELGVDFAYSAADGTELTGTWTMEGNKLVGKFKRVDNGKELIAVREISGNELIQTYTYEGVEAKRIFKKE
modifications: PEPTIDE (1)...(131) wild-type rat intestinal fatty acid binding protein
B14: 51H1, 72A (protein, listed as Rattus norvegicus)
chain: AFDGTWKVDRNENYEKFMEKMGINVVKRKLGAHDNLKLTITQEGNKFTVKHSSNFRNIDVVFELGVDFAYSAADGTELTGTWTMEGNKLVGKFKRVDNGKELIAVREISGNELIQTYTYEGVEAKRIFKKE
modifications: PEPTIDE (1)...(131) wild-type rat intestinal fatty acid binding protein
B15: 51G1, 72A (protein, listed as Rattus norvegicus)
chain: AFDGTWKVDRNENYEKFMEKMGINVVKRKLGAHDNLKLTITQEGNKFTVKGSSNFRNIDVVFELGVDFAYSAADGTELTGTWTMEGNKLVGKFKRVDNGKELIAVREISGNELIQTYTYEGVEAKRIFKKE
modifications: PEPTIDE (1)...(131) wild-type rat intestinal fatty acid binding protein
B16: 49W1, 72A (protein, listed as Rattus norvegicus)
chain: AFDGTWKVDRNENYEKFMEKMGINVVKRKLGAHDNLKLTITQEGNKFTWKESSNFRNIDVVFELGVDFAYSAADGTELTGTWTMEGNKLVGKFKRVDNGKELIAVREISGNELIQTYTYEGVEAKRIFKKE
modifications: PEPTIDE (1)...(131) wild-type rat intestinal fatty acid binding protein
B17: 49P1, 72A (protein, listed as Rattus norvegicus)
chain: AFDGTWKVDRNENYEKFMEKMGINVVKRKLGAHDNLKLTITQEGNKFTPKESSNFRNIDVVFELGVDFAYSAADGTELTGTWTMEGNKLVGKFKRVDNGKELIAVREISGNELIQTYTYEGVEAKRIFKKE
modifications: PEPTIDE (1)...(131) wild-type rat intestinal fatty acid binding protein

Tests used:
Format in all cases: binding
Settings in all cases: response relative to ADIFAB2
[1] = Probe fluorescence ratio response to palmitic acid relative to ADIFAB2
Outline: (§1)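 Each fatty acid's response was expressed relative to ADIFAB2, the rI-FABP-L72A probe, as ΔR/ΔRreference. ΔR is the change in the background-corrected two-wavelength intensity ratio R=Fλ1/Fλ2 from its analyte-free baseline R0. Emission was read near about 420-480 nm for unbound and about 495-580 nm for FFA-bound probe.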

[2] = Probe fluorescence ratio response to arachidonic acid relative to ADIFAB2
Outline: as §1

[3] = Probe fluorescence ratio response to linoleic acid relative to ADIFAB2
Outline: as §1

[4] = Probe fluorescence ratio response to linolenic acid relative to ADIFAB2
Outline: as §1

[5] = Probe fluorescence ratio response to oleic acid relative to ADIFAB2
Outline: as §1

Row | Molecule | DR/DR PA [1] | DR/DR AA ([2]; Arachidonic acid) | DR/DR LA [3] | DR/DR LNA [4] | DR/DR OA [5] | DR/DR AA ([2]; arachidonic acid)
1 | B1 | 0.74 | 1.26 | 1.10 | 1.18 | 1.11 | –
2 | B2 | 0.70 | 1.38 | 1.48 | 1.49 | 1.28 | –
3 | B3 | 0.66 | 1.27 | 1.29 | 1.34 | 1.18 | –
4 | B4 | 0.69 | 1.44 | 1.55 | 1.47 | 1.35 | –
5 | B5 | 0.76 | 1.64 | 1.70 | 1.60 | 1.47 | –
6 | B6 | 0.43 | 0.66 | 0.67 | 0.64 | 0.67 | –
7 | B7 | 0.70 | 1.39 | 1.51 | 1.44 | 1.34 | –
8 | B8 | 0.69 | 0.92 | 1.25 | 1.23 | 1.20 | –
9 | B9 | 0.68 | 1.34 | 1.38 | 1.39 | 1.28 | –
10 | B10 | 0.35 | – | 0.67 | 0.51 | 0.57 | 0.46
11 | B11 | 0.72 | 1.50 | 1.55 | 1.62 | 1.41 | –
12 | B12 | 0.43 | 0.62 | 0.58 | 0.55 | 0.56 | –
13 | B13 | 0.78 | 1.68 | 1.75 | 1.70 | 1.56 | –
14 | B14 | 0.81 | 1.52 | 1.64 | 1.58 | 0.58 | –
15 | B15 | 0.78 | 1.64 | 1.71 | 1.76 | 1.57 | –
16 | B16 | 0.35 | 0.58 | 0.58 | 0.58 | 0.56 | –
17 | B17 | 0.76 | 1.57 | 1.59 | 1.53 | 1.40 | –
